Source: the supplement of paper PMC10724198
± gives the standard deviation of the averaged measurements.

Test system: Saccharomyces cerevisiae
Assay: protein stability index of tFT-peptide fusion (C-terminal peptide) (PSI (0-1 scale)); higher = more stable (slower turnover)
Details: genetic background: wild type; temperature: 30 C
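Note: PSI is a weighted mean of sequencing reads over stability bins, variants kept only with over 10 reads, mCherry proximal and sfGFP distal, peptide attached via GGGS linker.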

Sequence	protein stability index
SPPVPLPYLASP	0.663 ± 0.061
SPQPSLPFLPPL	0.668 ± 0.026
SPRPHRHLPFRP	0.709 ± 0.0072
SPRPIKCRPLLI	0.62 ± 0.018
SPRPPPLIIAST	0.664 ± 0.031
SPRPPSLPYAPP	0.701 ± 0.019
SPRPTRCGQNSM	0.6897 ± 0.0053
SPRPYFSLVLFF	0.539 ± 0.0032
SPRRSLPPAGFT	0.71 ± 0.017
SPRVRVYLTDTG	0.7306 ± 0.0042
SPSCFFIFALPC	0.605 ± 0.037
SPSCSLLCPLPR	0.72 ± 0.028
SPSIRFILWGPI	0.678 ± 0.041
SPSLSPSPPSPS	0.6699 ± 0.0039
SPSPLPTTPPTC	0.641 ± 0.0077
SPSPPHPLTTTL	0.711 ± 0.075
SPSPPLASPPPL	0.686 ± 0.016
SPSRPTPNTIGP	0.615 ± 0.031
SPSSFVTFVVLE	0.652 ± 0.098
SPSSPPPPPPPA	0.833 ± 0.033
SPSTRWPTVQTR	0.662 ± 0.0098
SPTAPPPRPFPP	0.679 ± 0.042
SPTPPRMPLSLP	0.677 ± 0.024
SPTRFLPVPTPF	0.75 ± 0.052
SPTSTILKSYTR	0.659 ± 0.086
SPVPRPGTTRRP	0.721 ± 0.031

Sequence	protein stability index
SPVQHPKHIQPG	0.656 ± 0.008
SPVRRGRCRLSG	0.728 ± 0.1
SQFGLGCCQRST	0.723 ± 0.069
SQGAGKCIIIAA	0.561 ± 0.015
SQGSTLRGIEEP	0.661 ± 0.048
SRAARLLPKLLI	0.589 ± 0.055
SRAPRDVFSPPM	0.72 ± 0.019
SRASPPCSLLSS	0.696 ± 0.051
SRCRASMPPLRA	0.684 ± 0.034
SRERRPKVFILR	0.669 ± 0.027
SRETRRRENPAK	0.677 ± 0.19
SRFAAGSRVLFL	0.758 ± 0.044
SRFSRLHPAFPV	0.759 ± 0.014
SRGLPRLLCPPP	0.747 ± 0.025
SRGLVRGPMSGR	0.661 ± 0.053
SRGRSFFAGVGG	0.722 ± 0.042
SRGVSRGGGEVF	0.651 ± 0.027
SRGWCGRVVWGK	0.729 ± 0.01
SRHFPLGTVHVP	0.756 ± 0.065
SRHRVGLPIQIF	0.526 ± 0.022
SRKIRTTLQESK	0.7219 ± 0.0071
SRLGVGGGLCSW	0.714 ± 0.11
SRLKAPADTDPN	0.7 ± 0.015
SRLSPPFPLFSL	0.505 ± 0.036
SRMRRGCTGCEC	0.671 ± 0.061
SRPPLLLLSSGA	0.6583 ± 0.0059

Sequence	protein stability index
SRPRLSDLFPPP	0.706 ± 0.11
SRRVSVSTSWNP	0.718 ± 0.014
SRSCCPGVRVRF	0.709 ± 0.03
SRSCRHGELKFA	0.718 ± 0.0097
SRSGASLRAARG	0.722 ± 0.043
SRSGVSTRGVPC	0.709 ± 0.0073
SRSWLPPVFPRV	0.807 ± 0.059
SRTLLRVSHLSL	0.699 ± 0.02
SRVAEIERVQWL	0.655 ± 0.038
SRVQYVLDRSVF	0.649 ± 0.0099
SRVTGPGRADGT	0.691 ± 0.011
SRVTVLGGWRRG	0.701 ± 0.034
SRWFEFSFLSQV	0.707 ± 0.049
SRYERLFSDNRG	0.718 ± 0.019
SSALPPLLAFFL	0.6808 ± 0.0046
SSALSLVSSFLP	0.705 ± 0.05
SSASLIPPPPVP	0.693 ± 0.053
SSCRHYRSPINH	0.764 ± 0.069
SSDLSNVQTQRL	0.708 ± 0.065
SSFFTTGAPRPP	0.674 ± 0.061
SSGFVWVGVCVG	0.5 ± 0.0069
SSGRRFVVVVQG	0.572 ± 0.026
SSGSLITIASPF	0.745 ± 0.024
SSHHGSSEDDHQ	0.6597 ± 0.001
SSHHYSCPLVDT	0.667 ± 0.058
SSIHSLRQVISI	0.614 ± 0.051

Sequence	protein stability index
SSLDTPSFDSSL	0.675 ± 0.018
SSLLSPLRSAFL	0.71 ± 0.066
SSLMGGLSAYPG	0.694 ± 0.011
SSLNLLIHTAPL	0.739 ± 0.023
SSLSFAPAPPFV	0.698 ± 0.035
SSPEYIRNIQRS	0.62 ± 0.029
SSPGFCRVFVFF	0.491 ± 0.018
SSPHRFLCLPPP	0.639 ± 0.061
SSPLPLPLHPPP	0.7146 ± 0.0062
SSPPRSLLSKSF	0.722 ± 0.017
SSPSALSLLLSV	0.6876 ± 0.0049
SSPSPSPPHLHP	0.712 ± 0.02
SSQVELPVSVVW	0.649 ± 0.058
SSRGVTRRRLRE	0.724 ± 0.15
SSRPLISTLTPY	0.661 ± 0.014
SSRSMKKKKVKI	0.7034 ± 0.0027
SSRVSLSTVCLL	0.585 ± 0.019
SSSAPLPPSLPL	0.791 ± 0.16
SSSEGNRGSLQY	0.774 ± 0.041
SSSPPPPPPSPS	0.75 ± 0.12
SSTALVFRLICL	0.63 ± 0.016
SSVNRPTSWTKA	0.739 ± 0.024
SSWRVPLSVLPI	0.67 ± 0.014
